Test results reported in article PMC11965522 (Communications Biology, 2025).
Substitutions are numbered along the chain they refer to.

B1: P. furiosus Rad50 nucleotide-binding domain construct (aa 1-195 - GGAGGAGG linker - aa 709-882) (domain or fragment)
chain: MKLERVTVKNFRSHSDTVVEFKEGINLIIGQNGSGKSSLLDAILVGLYWPLRIKDIKKDEFTKVGARDTYIDLIFEKDGTKYRITRRFLKGYSSGEIHAMKRLVGNEWKHVTEPSSKAISAFMEKLIPYNIFLNAIYIRQGQIDAILESDEAREKVVREVLNLDKFETAYKKLSELKKTINNRIKEYRDILARTEGGAGGAGGRERVKKEIKDLEKAKDFTEELIEKVKKYKALAREAALSKIGELASEIFAEFTEGKYSEVVVRAEENKVRLFVVWEGKERPLTFLSGGERIALGLAFRLAMSLYLAGEISLLILDEPTPYLDEERRRKLITIMERYLKKIPQVILVSHDEELKDAADHVIRISLENGSSKVEVVS
B2: P. furiosus Rad50^NBD [change] [change]/[change], fluorophore-labeled (domain or fragment)
chain: B1 chain with L51C, S115E, S116E
B3: P. furiosus Rad50^NBD [change] [change]/[change], fluorophore-labeled (domain or fragment)
chain: B1 chain with L51C, R328E, R329E
B4: P. furiosus Rad50^NBD [change] [change], fluorophore-labeled (domain or fragment)
chain: B1 chain with L51C, R363E
B5: P. furiosus Rad50^NBD [change] [change], fluorophore-labeled (domain or fragment)
chain: B1 chain with L51C, K172E

Key:
[1] = molecular target: T1, P. furiosus (Pf) Mre11, wild type (P. furiosus, UniProt Q8U1N9 1-426); test: SEC
[2] = molecular target: T1, P. furiosus (Pf) Mre11, wild type; test: FRET or BRET
[3] = molecular target: the molecule itself; test: FRET or BRET

Binder	binding result [1]	binding result [2]	binding result [3]
B1	binds		
B2		binds	binds
B3		binds	binds
B4		binds	binds
B5		binds	binds
